Measured values as given in PMC8486322 (Cell, 2019).

Target: eRF3 fused with maltose binding protein (MBP-eRF3) ( (the printed NM_002094.3 is …, UniProt P15170-3 1-637))
Experiment: pull-down

B1: SFL fused with glutathione S-transferase (GST-SFL) (natural protein)
chain: not shown
binding result: binds
